Reference: US20230213525A1, “DETECTING MICROBIAL INFECTION IN WOUNDS” (QUALIZYME DIAGNOSTICS GMBH & CO KG, priority 2016, published 2023)

Molecular target: T1, Elastase (Homo sapiens, UniProt P08246)
T1 sequence (P08246 30-267): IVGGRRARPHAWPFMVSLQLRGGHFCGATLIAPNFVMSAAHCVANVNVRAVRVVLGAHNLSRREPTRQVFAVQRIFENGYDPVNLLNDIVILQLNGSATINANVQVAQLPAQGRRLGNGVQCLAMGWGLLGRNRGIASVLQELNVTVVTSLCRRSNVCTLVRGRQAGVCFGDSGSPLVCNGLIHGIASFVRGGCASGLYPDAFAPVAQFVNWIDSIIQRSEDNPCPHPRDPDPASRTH
Assay: Reaction of Trx-Ela-Sub 1-RBB with Elastase
Type: biochemical
Details: incubated with and without Elastase containing buffer; FIG. 10
Experimental: The stained and purified peptide construct was applied on a cellulose surface and dried at 37° C. for 2 h. Unbound Trx-Ela-Sub 1-RBB was removed with H20. The stripes with the applied Elastase substrate were incubated with and without Elastase containing buffer, respectively.

dye release from cellulose stripes: Elastase responsive dye release
B1: Trx-Ela-Sub 1-RBB: purified Trx-Ela-Sub1 fusion protein stained with vinyl sulfone dye remazol brilliant blue R (conjugate)
chain: MSDKIIHLTDDSFDTDVLKADGAILVDFWAEWCGPCKMIAPILDEIADEYQGKLTVAKLNIDQNPGTAPKYGIRGIPTLLLFKNGEVAATKVGALSKGQLKEFLDALAGSGSGHMHHHHHHSSGLVPRGSGMKETAAAKFERQHMDSPDLGTDDDDKAMGGSCGGGGSAAPVGGGGSAAPVGGGGSPPGGNRGTTTTRRPATTTGSSPGPTQSHYGQCGGIGYSGPTVCASGTTCQVLNPYYSQCLLEHHHHHH
